{"source": "patent US20250145722A1", "about": "(TRUEBINDING, published 2025)", "binders": {"B1": {"name": "6H6.2D6 (antibody, human IgG4 S228P, kappa, V domains shown)", "VH": "QIQLVQSGPELKKPGETVKISCKASGYTFTTYGMSWVKQAPGKGLKWMAWINTYSGVPTYADDFKGRFAFSLETSASTAYLQINNLTNEDTATYFCARGPYAMDYWGQGTSVTVSS", "VL": "DIQMTQTTSSLSASLGDRVTISCSASQGISNYLNWYQQKPDGTVKLLIYYTSSLHSGVPSRFSGSGSGTDYSLTISNLEPEDIATYYCQQYSELPYTFGSGTKLEIKR"}}, "key": {"[1]": {"molecular_target": "T1, human Galectin-3 (Gal3), full-length recombinant (human, UniProt P17931 2-250)", "T1 construct": "treated here as one molecule; also called hGAL3; hGal3", "T1 sequence (P17931 2-250 limits assumed)": "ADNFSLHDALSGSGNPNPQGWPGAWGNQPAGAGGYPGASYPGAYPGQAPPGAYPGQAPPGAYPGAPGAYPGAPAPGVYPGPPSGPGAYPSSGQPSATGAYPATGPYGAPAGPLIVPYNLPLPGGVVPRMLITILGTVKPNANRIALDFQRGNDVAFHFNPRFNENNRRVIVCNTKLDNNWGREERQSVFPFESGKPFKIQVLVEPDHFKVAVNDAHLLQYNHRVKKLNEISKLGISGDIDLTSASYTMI", "assay": "blocking ELISA, Gal3 coated, EGFR-Fc, antibody 20 µg/ml", "method": "(§1) After incubating the plate at 4° C. overnight, the plate was washed three times with PBST. The plate was then blocked for an hour with 2% BSA in PBST at room temperature with gentle rocking. […] The respective plates were incubated for an hour at room temperature with gentle rocking. Thereafter, the plate was washed three times with PBST. Peroxidase AffiniPure F(ab′)₂ Fragment Goat Anti-Human IgG (H+L) polyclonal antibody was then added to the wells at 1:4000 dilution in 2% BSA in PBST. The plate was incubated at room temperature for an hour with gentle rocking and then washed three times with PBST. TMB substrate was then added to each well. The reaction was stopped with 1M HCl and read using a plate reader (Molecular Devices, SpectraMax M4) at absorbance of 450 nm."}, "[2]": {"molecular_target": "T1, human Galectin-3 (Gal3), full-length …", "assay": "blocking ELISA, Gal3 coated, VEGFR3-Fc, antibody 20 µg/ml", "method": "as §1"}, "[3]": {"molecular_target": "T1, human Galectin-3 (Gal3), full-length …", "assay": "blocking ELISA, Gal3 coated, PDGFR beta-Fc, antibody 20 µg/ml", "method": "as §1"}, "[4]": {"molecular_target": "T1, human Galectin-3 (Gal3), full-length …", "assay": "blocking ELISA, Gal3 coated, PDGFR alpha-Fc, antibody 20 µg/ml", "method": "as §1"}, "[5]": {"molecular_target": "T1, human Galectin-3 (Gal3), full-length …", "assay": "Gator biosensor kinetics, antibody loaded on probe, rhGal3-His in solution, 1:1 fit", "from_the_text": "The binding affinities were characterized by fitting the kinetic sensorgrams to a monovalent binding model (1:1 binding)."}, "[6]": {"molecular_target": "T1, human Galectin-3 (Gal3), full-length …", "assay": "Gator biosensor kinetics (legend: SPR), 6H6 mIgG2a loaded on probes, rhGalectin-3 as analyte, 1:1 fit"}}, "data": [{"binder": "B1", "values": [{"measurement": "% blocking of Gal3-EGFR binding", "setting": "[1]", "result": "> 70", "unit": "%"}, {"measurement": "% blocking of Gal3-VEGFR3 binding", "setting": "[2]", "result": "> 70", "unit": "%"}, {"measurement": "% blocking of Gal3-PDGFR beta binding", "setting": "[3]", "result": "> 70", "unit": "%"}, {"measurement": "% blocking of Gal3-PDGFR alpha binding", "setting": "[4]", "result": "> 70", "unit": "%"}, {"measurement": "Kd", "setting": "[5]", "result": 3.39, "unit": "nM"}, {"measurement": "koff", "setting": "[6]", "result": 0.000299, "unit": "s⁻¹"}, {"measurement": "kon", "setting": "[6]", "result": 88000, "unit": "M⁻¹ s⁻¹"}]}]}
